Measurements as given in PMC10801922 (Proceedings of the National Academy of Sciences of the …, 2024).

Columns and labels:
[1] = biological target: T1, SARS-CoV-2 G614 (wild-type) receptor-binding domain (SARS-CoV-2, UniProt P0DTC2); assay: ELISA; details: both partners purified
T1 construct: also called RBD of G614; G614 RBD

[2] = biological target: SARS-CoV-2 Alpha (B.1.1.7) receptor-binding domain (SARS-CoV-2 Alpha (B.1.1.7), strain)
[3] = biological target: T1, SARS-CoV-2 G614 (wild-type) …
[4] = biological target: SARS-CoV-2 Delta (B.1.617.2) receptor-binding domain (SARS-CoV-2 Delta (B.1.617.2), strain)

Row | Binder | binding result [1] | binding result [2] | Kd [3] [nM] | binding result [4]
1 | XG014 IgG (antibody, V domains shown, also called parental IgG; source: recombinant) VH: EVQLVQSGAEVKKPGESLKISCKGSGYSFSNYWIGWVRHMPGKGLEWMGIIYPGDSDTRYSPSFQGQVTISVDTSISTAYLQWSSLKASDTAMYYCTRHQYGYNYGYFYYYIDVWGKGTTVTVSS VL: QSVLTQPPSVSAAPGQKVTISCSGSSSNIGNNPVSWYRQVPGTAPKLLIYDNNKRPSGIPDRFSGSKSGASATLGITGLQTGDEADYYCGTWHTSLSSGVFGGGTKLTVL | binds | – | – | –
2 | rmAb23 (antibody, V domains shown) VH: EVQLVESGGGLIQPGGSLRLSCAASGFTVSSNYMSWVRQAPGKGLEWVAVIYSGGSTDYADSVKGRFTISRDNSKNTLHLQMNSLRAEDTAVYYCARDLVVYGMDVWGQGTTVTVSS VL: DIQLTQSPSFLSASVGDRVTITCRASQGISSYLAWYQQKPGKAPKLLIYAASTLQSGVPSRFSGSGSGTEFTLTISSLQPEDFATYYCQQLNSYPLTFGPGTKVDIK | – | binds | 6.5 | binds
3 | 01A05 (antibody, V domains shown) VH: QVQLVQSGAEVKKPGASVKVSCKASGYTFTSYGISWVRQAPGQGLEWMGWISADNGNTNYAQKLQGRVTMTTDTSTSTAYMELRSLRSDDTAVYYCARVPMFVVPNCSGGGCYRRAWEAGLDVWGQGTTVTVSS VL: DIQMTQSPSSLSASVGDRVTITCRASQSISNYLNWYQQRPGRAPKLLIYTTSNLQSGVPSRFSGSGSGTDFTLTISSLQPEDFATYFCQQSFTGTFGGGTKVEIK | – | binds | 2.5 | binds
